One substance from patent publication US9669057 can be followed below.

For the assay, the target named is mouse CD40 (mouse) (UniProt P27512). The assay is described as follows: cell-based or functional assay.
Sequence of UniProt P27512 (P27512 20-289): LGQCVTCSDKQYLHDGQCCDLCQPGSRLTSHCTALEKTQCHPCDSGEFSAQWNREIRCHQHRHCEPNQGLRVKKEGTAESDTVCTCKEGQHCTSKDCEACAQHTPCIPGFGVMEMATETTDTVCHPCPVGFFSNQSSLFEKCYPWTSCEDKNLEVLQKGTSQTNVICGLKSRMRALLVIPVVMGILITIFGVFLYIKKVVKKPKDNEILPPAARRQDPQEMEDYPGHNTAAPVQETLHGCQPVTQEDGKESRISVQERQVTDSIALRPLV

In the case of anti-mouse CD40 mAb (HM40-3) (antibody), the fold increase in frequency of cytoplasmic IL-10+ adult blood B cells, 48 h culture against 5 h L+PIM culture was in the range of 6 to 9 fold and the reduction of LPS-induced IL-10 secretion by spleen B cells, ELISA of culture supernatant is > 68%.
